# Reference: US20220195015A1 (published 2022)
# Numbering of substitutions follows the chain as printed.
# B1: C550 (antibody, V domains shown)
# VH: EVQLVQSGAEVKKPGESLKISCKGSGYRFTNYWIGWVRQMPGKGLEWMGIIYPGDSDTRYSPSFQGQVTISADKSITTAYLQWSSLKASDTAMYYCARLSDRWYSPFDPWGQGTLVTVSS
# VL: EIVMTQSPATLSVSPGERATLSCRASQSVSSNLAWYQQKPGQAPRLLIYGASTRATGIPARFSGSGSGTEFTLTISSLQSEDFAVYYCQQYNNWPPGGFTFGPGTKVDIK
# B2: C576 (antibody, V domains shown)
# VH: QVQLVQSGAEVKKPGSSVKVSCKASGGTFSIYAISWVRQAPGQGLEWMGGIIPILGTANYAQKFQGRVTITADESTSTAYMELSSLRSEDTAVYYCASFHVAYGDYIPFDYWGQGTLVTVSS
# VL: not shown
# B3: C571 (antibody, V domains shown)
# VH: EVQLVESGGGLIQPGGSLKLSCVVSGFTVSRNYISWVRQAPGKGLEWVSVLFAGGSTFYADSVKGRFAISRDNSNNTLFLQMNSLRVEDTAIYYCARGDGELIFDQWGQGTLVTVSS
# VL: QSVLTQPPSVSGAPGQRVTIVCTGTSSNIGAGYDVHWYQQLPGRAPKVLVSGNNIRPSEVPDRFSGSRSGTSASLAITSLQPEDEAQYYCQSYDSNLYAVFGGGTKLTVL
# B4: C572 (antibody, V domains shown)
# VH: EVQLVESGGGLIKPGRSLRLSCTASGFTFGDYAMTWFRQAPGKGLEWVGFIRSKAYGGTTGYAASVKYRFTISRDDSKSIAYLQMDSLKTEDTAVYYCTRWDGWSQHDYWGQGTLVTVSS
# VL: DIVMTQSPLSLSVTPGEPASISCRSSQSLLHSNGNNYFDWYLQKPGQSPQLLIYLASNRASGVPDRFSGSGSGTDFTLKISRVEAEDVGVYYCMQVLQIPYTFGQGTKLEI
# B5: C580 (antibody, V domains shown)
# VH: EVQLVQSGAEVKKAGESLKISCNSSGYSFTNYWIAWVRQVPGKGLEWMGIIYLGDSDTRYSPSFQGRVTISADKSISAAYLHWSSLKASDTAIYYCARGGPPGGVKLELTDFWGQGTLVTVSS
# VL: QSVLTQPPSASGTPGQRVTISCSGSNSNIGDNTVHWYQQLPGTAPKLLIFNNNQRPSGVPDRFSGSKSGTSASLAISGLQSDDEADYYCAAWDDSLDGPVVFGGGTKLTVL
# B6: C569 (antibody, V domains shown)
# VH: QVQLVESGGNVVQPGRSLRLSCAASGFTFSNYGMHWIRQAPGKGLEWVAVISYDGSDKYYADSVKGRVTISRDNSKNTLYLQMNSLRAEDTAVYYCAKGGPYGDHVRSDYWGLGTLVTVSS
# VL: DIQMTQSPSSLSASVGDRVTITCQASQDISNYLNWYQQKPGKVPKLLIYDASNLETGVPSRFSGSGSGTDFTFTISSLQPEDIATYYCQQFHNLPLTFGQGTKLEIK
# B7: C577 (antibody, V domains shown)
# VH: QVQLVQSGAEVKKPGSSVKVSCKASGDTFSIYAFSWVRQAPGQGLQWMGAIIPLLGTTNYAQKFLGRVTITADESTSTTFMELSSLTSEDTAVYHCATFHVAYGDYIPFDSWGQGTLVIVSS
# VL: not shown
# B8: C552 (antibody, V domains shown)
# VH: QVQLVESGGGVVQPGRSLRLSCAASGFTFSSYAMHWVRQAPGKGLEWVALISYDGSNKHYADSVKGRFTISRDNSKNTLYLQMNSLRAEDTAVYYCARAGTTNSDYFDYWGQGTLVTVSS
# VL: SYELTQPPSVSVAPGKTARITCGGNNIGSKSVHWYQQKPGQAPVLVIYYDTDRPSGIPERFSGSNSGNTATLTISRVEAGDEADYYCQVWDSSSALWVFGGGTKLTVL
# B9: C553 (antibody, V domains shown)
# VH: B8 VH with S31N, A33E, M34I, L50G, N57T, H59Y, A88P, Y94F
# VL: B8 VL with K16M, N26T, P39A, T51S, A95V
# B10: C573 (antibody, V domains shown)
# VH: QVQLQESGPGLVKPSGTLSLTCAVSGGSISTVNWWSWVRQPPGKGLEWIGEIHHSGNTNHNPSLRSRVTISVDKSKNQFSLKLRSVTAADTAVYYCARDGGRPGDAFDLWGQGTMVTVSS
# VL: QSALTQPASVSGSPGQSITISCTGTSSDVGGYNYVSWYQQHPGKVPKVMIYDVSNRPSGISNRFSGSKSGNTASLTISGLQAEDEADYYCNSYRSNSTRVFGTGTKVTV
# B11: C578 (antibody, V domains shown)
# VH: QVQLVESGGGVVQPGRSLRLSCAASGFTFSSSGMHWVRQAPGKGLEWVAIISYDGSNKYYADSVKGRFTISRDNSKNTLSLQMNSLRAEDTAVYYCAKDPLPFRDFFYYYMDVWGKGTTVTVSS
# VL: QSALTQPASVSGSPGQSITISCTGTSSDVGGYNYVSWYQQHPGKAPKLMIYDVSNRPSGVSNRFSGSKSGNTASLTISGLQAEDEADYYCSSYTSSSTLGVFGTGTKVTVL
# B12: C570 (antibody, V domains shown)
# VH: QVQLQESGPGLVKPSETLSLTCTVSGASISSYYWSWIRQPPGKGLEWIGYIYYSGSTNYNPSLKSRVTISLDTSKNQFSLQLSSVTAADTAVYYCATYYFDNSGYSYGLDVWGQGTTVTVSS
# VL: DIQMTQSPSSLSASVGDRVTIACRASQSISSYLHWYQQQPGKAPKLLIYAVTNLQSGVPSRFSGSGSGTDFTLTISSLQPEDFATYYCQQSYSLPQTFGQGTKVEIK
# B13: C581 (antibody, V domains shown)
# VH: EVQLVQSGAEVKKPGESLKISCKGSGYRFTSYWIAWVRQMPGKGLEWMGIIYPGDSDTRYSPSFQGQVTISADQSISTAYLQWSSLKASDTAMYYCARGGPPGGVKLELTDYWGQGALVTVSS
# VL: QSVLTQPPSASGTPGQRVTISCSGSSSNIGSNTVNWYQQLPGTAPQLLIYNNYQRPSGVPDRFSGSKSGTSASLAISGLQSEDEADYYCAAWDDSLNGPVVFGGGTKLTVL
# B14: C560 (antibody, V domains shown)
# VH: EVQLVESGGGLVQPGRSLRLSCAASGFTFDDYAMHWVRQAPGKGLEWVSGVSWNSGTIGYADSVKGRFTISRDNAKNSLYLQMNSLRAEDTALYYCAKIADIVRAYDFWSGQHFDAFDIWGQGTMVTVSS
# VL: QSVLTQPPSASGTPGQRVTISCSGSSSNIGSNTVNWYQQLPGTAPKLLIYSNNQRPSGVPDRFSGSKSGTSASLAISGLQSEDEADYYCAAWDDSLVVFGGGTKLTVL
# B15: C574 (antibody, V domains shown)
# VH: QVQLVQSGAEVKKPGASVKVSCKASGYTFTSYGFSWVRQAPGQGLEWLGWISAYNGNTNYAQKLQGRVTMTTDTSTSTAYMELRSLRSDDTAVYYCARAIAVAGTSGEFDYWGQGTLVTVSS
# VL: not shown
# B16: C555 (antibody, V domains shown)
# VH: EVQLVESGGGLVKPGGSLRLSCAASGLTFSTTWMSWVRQAPGKGLEWVGRIKSKGDGGTTDFAGPVKGRFSISRDDSKNTLYLHMNSLKTEDTAVYYCTTDDPGSYYYGMDVWGQGTTVTVSS
# VL: QTVVTQEPSLTVSPGGTVTLTCASSTGAVTSGHYPYWFQQKPGQAPRTLIYATSNKHSWTPARFSGSLLGGKAALTLSGAQPEDEADYYCLLSYSGARVFGGGTKLTVL
# B17: C558 (antibody, V domains shown)
# VH: EVQLVQSGAEVKKPGESLKISCKVSGYTFTNYWIGWVRQMPGKGLEWMGIIYPGDSDTRYSPSFQGQVTISADKSIITAYLQWSSLKASDTAMYYCARVPSSSDYGDYGGFEYWGQGTLVTVSS
# VL: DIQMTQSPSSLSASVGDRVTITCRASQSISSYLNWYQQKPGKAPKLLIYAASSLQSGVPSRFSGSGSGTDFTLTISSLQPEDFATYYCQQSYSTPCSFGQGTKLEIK
# B18: C559 (antibody, V domains shown)
# VH: B17 VH with Y52F, K74R, I77T, S84R
# VL: DIQMTQSPSSLSASVGDRVTITCRASQTITIYLNWYQQKPGKAPKLLIYAASSLQSGVPSRFSGSGSGTDFTLTISSLQPEDFATYYCQQSYSTPCSFGQGTKLEIK
# B19: C568 (antibody, V domains shown)
# VH: QVQLVQSGAEVKKPGASVKVSCTASGYTFSSYYIHWVRQAPGQGLEWMGIINPGAGSTSYAQKFQGRVAMTTDTSTRTVYMELSSLRSDDTAVYYCARDEAFLPSAIFVGDYWGQGTLVTVSS
# VL: DIQMTQSPSSLSASVGDRVTITCRASQGIRNDLGWYQQKPGKAPKRLIYAASNLQSGVPSRFSGSGSGTEFTLTISSLQPEDFATYYCLQHSTYPHTWTFGQGTKVEIK
# B20: C556 (antibody, V domains shown)
# VH: QVQLVQSGAEVKKPGASVKVSCKASGYTFTYYYMHWVRQAPGQGLEWMGIINPSGGSTSYAQKFQGRVTMTRDTSTSTVYMELSSLRSEDTAVYYCARPLLPGETGSLNRLDYWGQGTLVTVSS
# VL: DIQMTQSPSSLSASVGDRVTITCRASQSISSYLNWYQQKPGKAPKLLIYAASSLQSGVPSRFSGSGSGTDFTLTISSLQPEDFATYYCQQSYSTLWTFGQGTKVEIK
# What was measured:
# [1] = target: SARS-CoV-2 spike protein receptor binding domain (RBD) (SARS-CoV-2, UniProt P0DTC2 319-539); assay: ELISA, RBD coated on plate, mAb titrated
# [2] = target: SARS-CoV-2 spike protein receptor binding domain (RBD) (SARS-CoV-2, UniProt P0DTC2 319-539); assay: ELISA on plate-coated RBD
binder,measurement,setting,value
B1,EC50,[1],2.56 ng/mL
B2,EC50,[2],5.29 ng/mL
B3,EC50,[2],4.63 ng/mL
B4,EC50,[2],2.9 ng/mL
B5,EC50,[2],1.82 ng/mL
B6,EC50,[2],11.1 ng/mL
B7,EC50,[2],1.32 ng/mL
B8,EC50,[1],1.08 ng/mL
B9,EC50,[1],1.19 ng/mL
B10,EC50,[2],2.2 ng/mL
B11,EC50,[2],1.08 ng/mL
B12,EC50,[2],0.74 ng/mL
B13,EC50,[2],1.58 ng/mL
B14,EC50,[1],1.6 ng/mL
B15,EC50,[2],8.12 ng/mL
B16,EC50,[1],2.88 ng/mL
B17,EC50,[1],2.41 ng/mL
B18,EC50,[1],2.89 ng/mL
B19,EC50,[2],5.99 ng/mL
B20,EC50,[1],1.36 ng/mL
